Assay results taken from the supplement of paper PMC7877785.
± gives the uncertainty stated by the source.

Assay: self-splicing fitness, log relative to wild type (ln ratio); higher = more splicing; Tetrahymena group I intron in knt gene, E. coli kanamycin selection, DiMSum; sequences stand for … in CUCUCU…GGAGGGAAAAGUUAUCAGGCAUGCACCUGGUAGCUAGUCUUUAAACCAAUAGAUUGCAUCGGUUUAAAAGGCAAGACCGUCAAAUUGCGGGAAAGGGGUCAACAGCCGUUCAGUACCAAGUCUCAGGGGAAACUUUGAGAUGGCCUUGCAAAGGGUAUGGUAAUAAGCUGACGGACAUGGUCCUAACCACGCAGCCAAGUCCUAAGUCAACAGAUCUUCUGUUGAUAUGGAUGCAGUUCACAGACUAAAUGUCGGUCGGGGAAGAUGUAUUCUUCUCAUAAGAUAUAGUCGGACCUCUCCUUAAUGGGAGCUAGCGGAUGAAGUGAUGCAACACUGGAGCCGCUGGGAACUAAUUUGUAUGCGAAAGUAUAUUGAUUAGUUUUGGAGUACUCGUGGUCG
In short: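 Pooled colonies went to amplicon sequencing on an Illumina HiSeq 2500 after six replicate transformations. The plates were LB agar with 100 μg/mL carbenicillin, 50 μM IPTG and 0.2% rhamnose, with or without 25 μg/mL kanamycin, incubated overnight at 37°C or 30°C. The E. coli BL21(DE3) library had all eight P1ex-region intron nucleotides randomised, the intron placed in the knt kanamycin-resistance gene on pET-22b(+). DiMSum fitness is the error-weighted combination of replicate fold changes, kanamycin against none, normalised to wild type.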

Sequence	self-splicing fitness (ln) (30 °C)	self-splicing fitness (ln) (37 °C)
CUUCAGCAAUAUUACGGUGG	-2.39 ± 0.12	-1.18 ± 0.15
UGAGAGCAAUAUUACGCUGA	-2.42 ± 0.32	-1.53 ± 0.28
GGAUAGCAAUAUUACGGACC	-0.822 ± 0.22	-0.154 ± 0.25
ACGAAGCAAUAUUACGUACU	-0.484 ± 0.064	-0.0153 ± 0.089
AGUCAGCAAUAUUACGGACU	-2.86 ± 0.27	-2.27 ± 0.29
GUGAAGCAAUAUUACGACAG	-2.07 ± 0.16	-1.25 ± 0.17
CUCUAGCAAUAUUACGUCUA	-2.31 ± 0.25	-2.88 ± 0.24
AAAAAGCAAUAUUACGAAGA	-1.96 ± 0.14	-1.56 ± 0.15
GCCCAGCAAUAUUACGUCCG	-3.33 ± 0.26	-2.83 ± 0.21
UUCCAGCAAUAUUACGAAGG	-3.8 ± 0.22	-3.2 ± 0.37
AGCGAGCAAUAUUACGAAUG	-3.8 ± 0.43	-2.2 ± 0.42
GGUAAGCAAUAUUACGUAAU	-1.21 ± 0.096	-0.781 ± 0.12
CGGAAGCAAUAUUACGGACU	-0.00733 ± 0.094	-0.0682 ± 0.14
AUGGAGCAAUAUUACGUCAA	-1.77 ± 0.35	-0.821 ± 0.36
ACAUAGCAAUAUUACGUUCC	-2.65 ± 0.23	-2.1 ± 0.34
AGUUAGCAAUAUUACGGCUG	-0.983 ± 0.085	-0.309 ± 0.11
GUUGAGCAAUAUUACGCUGC	–	-0.666 ± 0.3
CAACAGCAAUAUUACGUUUA	-1.62 ± 0.086	-0.887 ± 0.073
AGCCAGCAAUAUUACGCUCA	-1.83 ± 0.1	-1.64 ± 0.13
ACCAAGCAAUAUUACGGCGG	-1.04 ± 0.083	-0.733 ± 0.11
CAGAAGCAAUAUUACGGGCU	-3.96 ± 0.24	-1.83 ± 0.16
UACGAGCAAUAUUACGGGCG	-0.999 ± 0.12	-0.902 ± 0.14
GUCGAGCAAUAUUACGAAUC	-1.52 ± 0.11	-0.929 ± 0.15
CUACAGCAAUAUUACGGGAU	-2.74 ± 0.15	-2.99 ± 0.27
AGACAGCAAUAUUACGUGAU	-2.36 ± 0.075	-0.742 ± 0.087

Sequence	self-splicing fitness (ln) (30 °C)	self-splicing fitness (ln) (37 °C)
CUGCAGCAAUAUUACGCGCG	-1.6 ± 0.075	-0.249 ± 0.087
GUUGAGCAAUAUUACGCCUG	–	-2.05 ± 0.35
GCUGAGCAAUAUUACGACCC	–	-0.524 ± 0.39
CUACAGCAAUAUUACGCCUU	-2.27 ± 0.2	-1.4 ± 0.31
AUUCAGCAAUAUUACGGGGA	-1.93 ± 0.094	-0.802 ± 0.083
AAAGAGCAAUAUUACGUCCU	-1.93 ± 0.13	-0.831 ± 0.12
CCUGAGCAAUAUUACGCCAG	-2.75 ± 0.41	-1.62 ± 0.32
CAUGAGCAAUAUUACGCGAC	–	-2.84 ± 0.44
ACCCAGCAAUAUUACGAUGC	-1.31 ± 0.06	0.13 ± 0.073
CGACAGCAAUAUUACGGGAG	-3.21 ± 0.15	-1.97 ± 0.13
UGCUAGCAAUAUUACGUCAC	-3.62 ± 0.19	-2.74 ± 0.22
CUUCAGCAAUAUUACGUAAG	-0.469 ± 0.084	-0.514 ± 0.1
CUUAAGCAAUAUUACGGUUA	–	-2.16 ± 0.29
UCGCAGCAAUAUUACGGCAC	-1.94 ± 0.34	-2.67 ± 0.29
UUACAGCAAUAUUACGAUAU	-1.83 ± 0.11	-0.951 ± 0.14
AGGAAGCAAUAUUACGAACG	-1.19 ± 0.14	-0.0957 ± 0.18
CAUGAGCAAUAUUACGCACG	-0.622 ± 0.097	-0.67 ± 0.11
GUUGAGCAAUAUUACGGAGA	-2.47 ± 0.45	-1.8 ± 0.35
AAAAAGCAAUAUUACGGAUU	-0.657 ± 0.068	-0.635 ± 0.096
UCGAAGCAAUAUUACGGACC	-3.46 ± 0.33	-2.02 ± 0.34
GCUUAGCAAUAUUACGAAUC	-0.244 ± 0.12	-0.0191 ± 0.15
UUGAAGCAAUAUUACGGUAA	-0.968 ± 0.1	-0.399 ± 0.12
UAGUAGCAAUAUUACGCGGA	-3.56 ± 0.47	-0.643 ± 0.17
UUAAAGCAAUAUUACGUCGG	-0.114 ± 0.074	0.43 ± 0.091
